These results are taken from patent US12331106B2, “Anti-angiopoietin-2 antibodies that induce Tie2 activation” (Institute for Basic Science, priority 2018, dated 2025).

In this assay the target is T1, hAng2 (Homo sapiens, UniProt O15123).
T1 sequence (O15123 19-496): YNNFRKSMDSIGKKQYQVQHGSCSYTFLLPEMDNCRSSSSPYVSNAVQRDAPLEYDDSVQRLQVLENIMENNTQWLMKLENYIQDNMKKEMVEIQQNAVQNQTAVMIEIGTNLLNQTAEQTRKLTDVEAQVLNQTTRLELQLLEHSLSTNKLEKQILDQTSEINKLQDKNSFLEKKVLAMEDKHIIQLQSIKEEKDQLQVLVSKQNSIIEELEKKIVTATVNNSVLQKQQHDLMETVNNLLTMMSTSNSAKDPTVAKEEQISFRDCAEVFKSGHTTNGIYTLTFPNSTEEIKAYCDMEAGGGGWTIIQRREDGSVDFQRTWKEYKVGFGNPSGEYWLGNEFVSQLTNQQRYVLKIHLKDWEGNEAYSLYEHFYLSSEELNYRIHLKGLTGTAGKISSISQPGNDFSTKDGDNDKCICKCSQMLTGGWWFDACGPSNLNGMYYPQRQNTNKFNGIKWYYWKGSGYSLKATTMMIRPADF
Kind of assay: OCTET affinity of humanized anti-Ang2 antibodies against hAng2. The format is binding. The following applies: for affinities to hAng2 antigen: statement in words. On the procedure: The affinity of humanized anti-Ang2 antibody against hAng2 was measured using OCTET® system (ForteBio). Specifically, buffer and samples were measured in total 200 μl/well using Black 96-well plates (96 well F-type black plates, Greiner). The biosensor used for affinity measurements was hydrated for 10 min before measurement with AR2G tip (ForteBio OCTET®). After the hydration, humanized anti-Ang2 antibody was diluted in 10 mM sodium acetate, pH 6.0 buffer at a concentration of 10 μg/ml, fixed on AR2G biosensor, and blocked with 1M ethanolamine. The recombinant hAng2 was diluted to 50, 25, 12.5, 6.25, 3.125, and 0 nM with 1× kinetic buffer, and subjected to association for 300 sec and dissociation for 900 sec. For affinity measurement (KD), association rate (K-on) and dissociation rate (K-off) were analyzed by binding curve (global) and fitted to 1:1 binding model using OCTET® data analysis v9.0.0.10 program.
The affinities of humanized 2C8 antibodies to hAng2 were in Table 15.

Setting [1] is: OCTET, antibody fixed on AR2G biosensor, hAng2 50-0 nM, 1:1 binding model.

Changes are numbered by the printed parent chain.

B1: 2C8H11G4: human IgG4 class antibody of 2C8H11 (antibody, V domains shown)
VH: QVQLVQSGAEVKKPGASVKVSCKASGYTFTSYWMHWVRQAPGQGLEWMGMIDPSDSETRLNQKFKDRVTMTRDTSTSTVYMELSSLRSEDTAVYYCARRFYYGSDWYFDVWGQGTLVTVSS
VL: DIQLTQSPSFLSASVGDRVTITCKASQDVGTAVAWYQQKPGKAPKLLIYWASTRHTGVPSRFSGSGSGTEFTLTISSLQPEDFATYYCQQYSSYPLTFGQGTKVEIK
As to B1, under “IgG4 class antibodies”, the “Kdis” value was found to be 4.35e-06 s⁻¹, the “Kon” value was 415000 M⁻¹ s⁻¹ and the “affinities to hAng2 antigen” value is on record as “subnanomolar high affinities”.

B2: 2C8H23: humanized anti-Ang2 antibody from mouse 2C8; VH SEQ ID NO: 99, VL SEQ ID NO: 100 (antibody, V domains shown)
VH: B1 VH with T28S, M48I
VL: B1 VL with T20S, S60D, T85D, Y87F
modifications: VH; VL
Under setting [1], B2 yielded a Kdis of 2.28e-05 s⁻¹ and a Kon of 79500 M⁻¹ s⁻¹.

B3: 2C8H52: humanized anti-Ang2 antibody from mouse 2C8; VH SEQ ID NO: 91, VL SEQ ID NO: 92 (antibody, V domains shown)
VH: B1 VH with T28S, R38K, M48I, R67K, V68A, T69S, M70L, R72V
VL: B1 VL with T20S, S60D
modifications: VH; VL
Under setting [1], B3 registered a Kdis of 1.99e-05 s⁻¹ and a Kon of 81900 M⁻¹ s⁻¹.

B4: 2C8H22: humanized anti-Ang2 antibody from mouse 2C8; VH SEQ ID NO: 79, VL SEQ ID NO: 80 (antibody, V domains shown)
VH: B1 VH with T28S, M48I
VL: B1 VL with T20S, S60D
modifications: VH; VL
Turning to B4, under setting [1], the Kdis worked out at 6.84e-06 s⁻¹ and the Kon turned out to be 59600 M⁻¹ s⁻¹.

B5: 2C8H51: humanized anti-Ang2 antibody from mouse 2C8; VH SEQ ID NO: 71, VL SEQ ID NO: 72 (antibody, V domains shown)
VH: B1 VH with T28S, R38K, M48I, R67K, V68A, T69S, M70L, R72V
VL: B1 VL
modifications: VH; VL
Under setting [1], B5 displayed a Kdis of 9.61e-06 s⁻¹ and a Kon of 70200 M⁻¹ s⁻¹.

B6: 2C8H42: humanized anti-Ang2 antibody from mouse 2C8; VH SEQ ID NO: 87, VL SEQ ID NO: 88 (antibody, V domains shown)
VH: B1 VH with T28S, R38K, M48I, R67K, V68A, T69S
VL: B1 VL with T20S, S60D
modifications: VH; VL
For the molecule B6, under setting [1], the Kdis was 3.07e-05 s⁻¹ and the Kon turned out to be 80600 M⁻¹ s⁻¹.

B7: 2C8H21: humanized anti-Ang2 antibody from mouse 2C8; VH SEQ ID NO: 59, VL SEQ ID NO: 60 (antibody, V domains shown)
VH: B1 VH with T28S, M48I
VL: B1 VL
modifications: VH; VL
Under setting [1], B7 returned a Kdis of 1.5e-05 s⁻¹ and a Kon of 111000 M⁻¹ s⁻¹.

B8: 2C8H31: humanized anti-Ang2 antibody from mouse 2C8; VH SEQ ID NO: 63, VL SEQ ID NO: 64 (antibody, V domains shown)
VH: B1 VH with T28S, M48I, R67K, V68A, T69S
VL: B1 VL
modifications: VH; VL
Under setting [1], B8 yielded a Kdis of 2.21e-05 s⁻¹ and a Kon of 83200 M⁻¹ s⁻¹.

B9: 2C8H32: humanized anti-Ang2 antibody from mouse 2C8; VH SEQ ID NO: 83, VL SEQ ID NO: 84 (antibody, V domains shown)
VH: B1 VH with T28S, M48I, R67K, V68A, T69S
VL: B1 VL with T20S, S60D
modifications: VH; VL
Consider B9, for which, under setting [1], the Kdis was found to be 1.49e-05 s⁻¹ and the Kon was 75700 M⁻¹ s⁻¹.

B10: 4B9H11G4: human IgG4 class antibody of 4B9H11 (antibody, V domains shown)
VH: QVQLVESGGGLVKPGGSLRLSCAASGFTFSDYYMYWIRQAPGKGLEWVSTISVGGSFTYYPDSVKGRFTISRDNAKNSLYLQMNSLRAEDTAVYYCARDWGLRPWFVYWGQGTLVTVSS
VL: B1 VL with L4M, F10S, G30S, E70D, Y91H, S92Y, Y94T, L96P
B10: under “IgG4 class antibodies”, the “Kdis” value is 3.46e-05 s⁻¹, the “Kon” value was found to be 432000 M⁻¹ s⁻¹ and the “affinities to hAng2 antigen” value is reported as “subnanomolar high affinities”.

B11: 2C8H43: humanized anti-Ang2 antibody from mouse 2C8; VH SEQ ID NO: 107, VL SEQ ID NO: 108 (antibody, V domains shown)
VH: B1 VH with T28S, R38K, M48I, R67K, V68A, T69S
VL: B1 VL with T20S, S60D, T85D, Y87F
modifications: VH; VL
Under setting [1], B11 came in with a Kdis of 2.65e-05 s⁻¹ and a Kon of 71100 M⁻¹ s⁻¹.

B12: 2C8H53: humanized anti-Ang2 antibody from mouse 2C8; VH SEQ ID NO: 111, VL SEQ ID NO: 112 (antibody, V domains shown)
VH: B1 VH with T28S, R38K, M48I, R67K, V68A, T69S, M70L, R72V
VL: B1 VL with T20S, S60D, T85D, Y87F
modifications: VH; VL
In the case of B12, under setting [1], the Kdis was determined as 3.11e-05 s⁻¹ and the Kon stood at 80900 M⁻¹ s⁻¹.

B13: 2C8H13: humanized anti-Ang2 antibody from mouse 2C8; VH SEQ ID NO: 95, VL SEQ ID NO: 96 (antibody, V domains shown)
VH: B1 VH
VL: B1 VL with T20S, S60D, T85D, Y87F
modifications: VH; VL
Turning to B13, under setting [1], the Kdis was determined as 2.77e-05 s⁻¹ and the Kon amounted to 113000 M⁻¹ s⁻¹.

B14: 2C8H41: humanized anti-Ang2 antibody from mouse 2C8; VH SEQ ID NO: 67, VL SEQ ID NO: 68 (antibody, V domains shown)
VH: B1 VH with T28S, R38K, M48I, R67K, V68A, T69S
VL: B1 VL
modifications: VH; VL
Under setting [1], B14 gave a Kdis of 1.67e-05 s⁻¹ and a Kon of 67000 M⁻¹ s⁻¹.

B15: 2C8H33: humanized anti-Ang2 antibody from mouse 2C8; VH SEQ ID NO: 103, VL SEQ ID NO: 104 (antibody, V domains shown)
VH: B1 VH with T28S, M48I, R67K, V68A, T69S
VL: B1 VL with T20S, S60D, T85D, Y87F
modifications: VH; VL
Under setting [1], B15 yielded a Kdis of 3.99e-06 s⁻¹ and a Kon of 89600 M⁻¹ s⁻¹.

B16: 2C8H12: humanized anti-Ang2 antibody from mouse 2C8; VH SEQ ID NO: 75, VL SEQ ID NO: 76 (antibody, V domains shown)
VH: B1 VH
VL: B1 VL with T20S, S60D
modifications: VH; VL
For the molecule B16, under setting [1], the Kdis was determined as 1.33e-05 s⁻¹ and the Kon is 95200 M⁻¹ s⁻¹.
